The values below come from publication PMC3472098.

In the series the target is T1, Rrp44exo- (exoribonuclease-dead) (budding yeast, UniProt Q08162 1-1001, D551N).
T1 sequence: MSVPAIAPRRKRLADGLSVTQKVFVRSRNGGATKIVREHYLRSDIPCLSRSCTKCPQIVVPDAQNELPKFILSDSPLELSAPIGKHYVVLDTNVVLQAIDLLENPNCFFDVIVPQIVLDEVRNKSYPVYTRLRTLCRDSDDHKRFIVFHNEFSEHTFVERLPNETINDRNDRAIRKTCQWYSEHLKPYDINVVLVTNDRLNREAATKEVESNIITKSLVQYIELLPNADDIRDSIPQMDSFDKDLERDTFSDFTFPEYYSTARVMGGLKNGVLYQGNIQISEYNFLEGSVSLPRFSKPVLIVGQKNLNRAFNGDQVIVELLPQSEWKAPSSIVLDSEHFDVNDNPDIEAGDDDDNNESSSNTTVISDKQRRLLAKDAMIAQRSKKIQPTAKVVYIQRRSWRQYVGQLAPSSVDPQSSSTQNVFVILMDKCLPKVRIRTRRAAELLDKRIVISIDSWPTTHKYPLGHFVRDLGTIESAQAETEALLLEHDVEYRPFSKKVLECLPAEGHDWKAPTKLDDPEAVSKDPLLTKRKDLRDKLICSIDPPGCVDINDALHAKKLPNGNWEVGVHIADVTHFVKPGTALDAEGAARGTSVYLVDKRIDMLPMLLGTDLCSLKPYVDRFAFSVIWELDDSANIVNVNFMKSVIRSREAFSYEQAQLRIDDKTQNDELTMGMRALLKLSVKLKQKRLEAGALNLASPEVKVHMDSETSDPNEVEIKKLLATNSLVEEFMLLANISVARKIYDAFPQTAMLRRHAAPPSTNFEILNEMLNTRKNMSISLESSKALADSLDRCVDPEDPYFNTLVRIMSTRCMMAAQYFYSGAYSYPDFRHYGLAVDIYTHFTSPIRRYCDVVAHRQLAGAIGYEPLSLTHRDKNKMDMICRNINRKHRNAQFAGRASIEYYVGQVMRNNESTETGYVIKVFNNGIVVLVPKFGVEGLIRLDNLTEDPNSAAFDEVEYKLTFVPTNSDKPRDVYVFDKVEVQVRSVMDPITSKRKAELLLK
Nature of the series: fluorescence polarization. Background: In fluorescence polarisation assays a small probe gives low polarisation when free and higher when bound to something large.

For AAAAAAAAAAAAAAAAAAAAAAAAAAAAAAAAAAAAAAAAAAAAAAAAA (ssRNA) [polyA RNA 49 nt], the binding result is “binds”.
